Like-named read-outs stand apart in the source and are kept apart here.
Experiments:
[1] = Biodistribution of radioactive gold clusters (no antibody) in healthy mice; assay type: in vivo
Procedure: Typically the blood had 2.8%, the spleen 0.4%, the stomach 0.4%, kidney 5.1%, bone 2.5%, gut and feces 3.3%, liver 19.3% and, carcass 13.7% of the injected amount after 24 hours. These numbers are % counts per organ normalized to 25 gm mice.

[2] = Thermal stability of gold clusters; assay type: physicochemical; conditions: 100° C.
[3] = tested on: human colon carcinoma cells (LS180)
Procedure: (§3) The 17-1A Fab' fragment-(radioactive gold)-undecagold cluster conjugate was incubated in vitro with tumor cells (LS180- a cell culture of human colon carcinoma) and non tumor cells (WM164 - a cell culture of melanoma as control) and the radioactivity of the gold was used to assay binding.
(§4) bound to cells after incubation and washing.
(§5) entry is an average (+ s.d.) of 2 samples.

melanoma cells (WM164) [4] = tested on: melanoma cells (WM164)
Procedure: as §3, §4, §5

[5] = Biodistribution of radioactive gold clusters (no antibody) in healthy mice; assay type: in vivo; conditions: after 2 hours, tail vein
[6] = Toxicity of radioactive gold clusters (no antibody) in healthy mice; conditions: tail vein; 7.8, 12.6 or 24 μg gold metal; 2 or 24 hours
Procedure: The folowing in vivo tests in mice assess both biodistribution with time and toxicity.
Various doses of gold cluster were injected into the tail vein of healthy mice: cluster containing 7.8 μg of gold metal into one group, 12.6 μg into another and 24 μg into the third. Each group consisted of 6 animals, for a total of 18 mice. Three mice from each group were sacrificed after 2 hours and the remaining 3 were terminated after 24 hours in order to determine the biodistribution in different organs as a function of time.

[7] = Stability of photocrosslinked Au13 cluster to KCN (optical density at 346 and 420 nm); assay type: physicochemical; conditions: 100 μl of cluster (1 μMolar) with 20 μl of 0.1M KCN
Procedure: Two nmol of the Au13 [P(PhCONH(CH2)3 NH2)3 ]10 cluster in 0.1M sodium citrate buffer, pH 5, was incubated with the crosslinking reagent, N-hydroxysuccinimidyl-4-azidosalicylic acid (NHS-ASA). A range of amounts was tried, from 1 to 100-fold molar excess over the number of amines in the cluster. Incubation was carried out in the dark for 30 min. The solution was exposed to UV light (Ultraviolet Products Inc., Lamp R-52) at 4 cm for 5 min. The product was purified on a 0.66×50 cm column of GH-25 (Amicon) using the buffer 0.36M triethylammonium bicarbonate/70% methanol in water. Alternately, these last two steps were reversed so that unreacted crosslinker was removed on the column before UV treatment.
The crosslinked cluster stability was quantitated by observing the decrease in optical density at 346 and 420 nm in a spectrophotometer at regular intervals after adding KCN or glutathione. One hundred μl of cluster (1 μMolar) was mixed with 20 μl of 0.1M KCN. […] Noncrosslinked cluster was completely destroyed after 2 min under these conditions.
A longer photocrosslinking reagent was also used, sulfosuccinimidyl 6-(4'-azido-2'-nitrophenylamino) hexanoate (sulfo-SANPAH). The procedure was identical to that described above. For 100-fold initial excess of crosslinker, the resulting cluster product was 100% stable to KCN indefinitely, whereas uncrosslinked cluster was completely destroyed in 2 min.

[8] = Chemical stability of derivatized Au13 cluster
human colon carcinoma = assay: In vivo biodistribution of radiogold cluster 17-1A conjugates in nude mice bearing human tumors; conditions: 24 hr after injection
Procedure: Nude mice bearing human colon carcinoma or melanoma tumors were injected with radioactive gold clusters conjugated to anti-tumor antibodies. Two antibodies were gold labeled, one (17-1A) against the human colon carcinoma and another non-relevant antibody, H2 4B5 anti-influenza. The non-relevant tumor (melanoma) and non-relevant gold conjugated antibody (H2 4B5) served as controls. A total of 53 mice were used. In order to assess the efficacy of using gold labeled Fab' versus whole IgG, both types of antibody were labeled and tested. In addition, two crosslinking arms between the gold cluster and antibody were used, one, as described in the preparation example, was N-methoxycarbonyl maleimide (NMCM), whereas the other was n-maleimidobenzoyl-N-hydroxysuccinimide ester (MBS), This was to test if a different covalent crosslinker between the gold cluster and antibody or antibody fragment yielded conjugates with different stabilities or body distributions in vivo.
In vivo biodistribution of radiogold cluster 17-1A conjugates. Data,
after injection is expressed in % of injected dose per gram of tissue.
Tumor to normal tissue ratios are given in parentheses. Three or four
sample were averaged; normalized to 25 g animals.

[9] = tested on: colorectal carcinoma cells; assay: In vitro test of Fab'-Au11 with colorectal carcinoma cells, radiolabeled second antibody; assay type: cell-based, human
Procedure: (§1) The antibody used is "17-1A", commercially available from Centocor, Inc. These antibody-cluster conjugates were also assayed by electron microscopy, high pressure liquid chromatography, and spectroscopy and appeared to follow the normal course of results indicated in Examples 4 and 5. The number of gold clusters bound to each Fab' in this example was 0.7-1.0.
(§2) The in vitro test involved incubating the Fab'-Au11 with either colorectal carcinoma cells or a control melanoma for one hour, centrifugation to isolate the cell-bound antibody, and assay of the bound antibody with a second antibody [to F(ab')2 ] which was itself radiolabeled with iodine. A titer curve was produced.

control melanoma = assay: In vitro test of Fab'-Au11 with control melanoma, radiolabeled second antibody; assay type: cell-based; conditions: preliminary in vitro testing, 17-1A
Procedure: as §1, §2

melanoma cells (WM164) [10] = assay: In vitro cell binding of 17-1A-Au11 conjugates, control melanoma (radioactivity of gold); conditions: percent of applied radioactive gold bound after incubation and washing; average ± s.d. of 2 samples
Procedure: as §3, §4, §5

[11] = tested on: human colon carcinoma cells (LS180); assay: In vitro cell binding of 17-1A-Au11 conjugates, human colon carcinoma (radioactivity of gold)
Procedure: as §3, §4, §5

[12] = 24 hours, % counts per organ normalized to 25 gm mice

Molecule: Au11 [P(C6 H4 CONHR)3 ]7^3+ where 20 R groups are CH3 and one is (CH2)3 N(CO2)(CH2)
- blood, % of the injected amount [1, 12]: 2.8%
- bone, % of the injected amount [1, 12]: 2.5%
- carcass, % of the injected amount [1, 12]: 13.7%
- gut and feces, % of the injected amount [1, 12]: 3.3%
- kidney, % of the injected amount [1, 12]: 5.1%
- liver, % of the injected amount [1, 12]: 19.3%
- spleen, % of the injected amount [1, 12]: 0.4%
- stomach, % of the injected amount [1, 12]: 0.4%
- clusters excreted ([1]; after 24 hours, tail vein): 56%
- stability at 100° C. [2]: perfectly stable
- % bound to tumor cells (human colon carcinoma) [3]: 0.54 ± 0.04%
- % bound to control cells (melanoma) (melanoma cells (WM164) [4]): 0.51 ± 0.06%
- clusters excreted [5]: 44%
- death or unusual reaction during or following injection [6]: no mice died or reacted unusually

Molecule: Au13 [P(PhCONH(CH2)3 NH2)3 ]10 [derivatized Au13 cluster]
- time to complete destruction in KCN [7]: 2 min
- stability upon addition of 1M KCN [8]: degraded

B1: Fab'-Au11: 17-1A monoclonal antibody Fab' fragment covalently coupled to the undecagold cluster (radioactive gold in Tables 1 and 2) (conjugate, chains of the INN, looked up)
VH: QVQLQQSGAELVRPGTSVKVSCKASGYAFTNYLIEWVKQRPGQGLEWIGVINPGSGGTNYNEKFKGKATLTADKSSSTAYMQLSSLTSDDSAVYFCARDGPWFAYWGQGTLVTVSA
VL: NIVMTQSPKSMSMSVGERVTLTCKASENVVTYVSWYQQKPEQSPKLLIYGASNRYTGVPDRFTGSGSATDFTLTISSVQAEDLADYHCGQGYSYPYTFGGGTKLEIK
modifications: Fab' undecagold cluster label
- Tumor to normal tissue ratio, blood (human colon carcinoma): 1.9
- Tumor to normal tissue ratio, bone (human colon carcinoma): 6.6
- Tumor to normal tissue ratio, gut (human colon carcinoma): 5.
- Tumor to normal tissue ratio, heart (human colon carcinoma): 3.7
- Tumor to normal tissue ratio, kidneys (human colon carcinoma): 0.06
- Tumor to normal tissue ratio, liver (human colon carcinoma): 1.0
- Tumor to normal tissue ratio, lung (human colon carcinoma): 2.5
- Tumor to normal tissue ratio, muscle (human colon carcinoma): 13.2
- Tumor to normal tissue ratio, spleen (human colon carcinoma): 2.3
- Tumor to normal tissue ratio, stomach (human colon carcinoma): 11.2
- blood, % of injected dose per gram of tissue (human colon carcinoma; normalized to 25 g animals): 3.4 ± 0.3 % of injected dose per gram of tissue
- bone, % of injected dose per gram of tissue (human colon carcinoma; normalized to 25 g animals): 0.97 ± 0.02 % of injected dose per gram of tissue
- gut, % of injected dose per gram of tissue (human colon carcinoma; normalized to 25 g animals): 1.3 ± 0.1 % of injected dose per gram of tissue
- heart, % of injected dose per gram of tissue (human colon carcinoma; normalized to 25 g animals): 1.7 ± 0.1 % of injected dose per gram of tissue
- kidneys, % of injected dose per gram of tissue (human colon carcinoma; normalized to 25 g animals): 103.0 ± 32 % of injected dose per gram of tissue
- liver, % of injected dose per gram of tissue (human colon carcinoma; normalized to 25 g animals): 5.6 ± 0.5 % of injected dose per gram of tissue
- lung, % of injected dose per gram of tissue (human colon carcinoma; normalized to 25 g animals): 2.5 ± 0.04 % of injected dose per gram of tissue
- muscle, % of injected dose per gram of tissue (human colon carcinoma; normalized to 25 g animals): 0.48 ± 0.06 % of injected dose per gram of tissue
- spleen, % of injected dose per gram of tissue (human colon carcinoma; normalized to 25 g animals): 2.8 ± 0.4 % of injected dose per gram of tissue
- stomach, % of injected dose per gram of tissue (human colon carcinoma; normalized to 25 g animals): 0.57 ± 0.14 % of injected dose per gram of tissue
- tumor, % of injected dose per gram of tissue (human colon carcinoma; normalized to 25 g animals): 6.4 ± 1.1 % of injected dose per gram of tissue
- antibody activity and specificity ([9]; one hour incubation, titer curve): antibody activity and specificity were preserved
- specificity for the tumor ([9]; preliminary in vitro testing, 17-1A): retains its specificity for the tumor
- binding to a control melanoma (control melanoma): does not bind to a control melanoma
- % bound to control cells (melanoma) (melanoma cells (WM164) [10]): 1.92 ± 0.17%
- localization of radioactive gold on tumor cells ([11]; LS180 cells, in words): localized completely on the tumor cells
- % bound to tumor cells (human colon carcinoma) ([11]; percent of applied radioactive gold bound after incubation and washing, average ± s.d. of 2 samples): 7.80 ± 0.52%

From patent US5360895A, “Derivatized gold clusters and antibody-gold cluster conjugates” (priority 1992, dated 1994)
